Test results as given in PMC10200060, “Inhibition of DAMP actions in the tumoral microenvironment using lactoferrin-glycyrrhizin conjugate for glioblastoma therapy” (Biomaterials Research, 2023).

Tests used:
HMGB1 = experiment: HUVEC co-cultured with U87MG: HMGB1 ELISA; assay type: cell-based, human; details: HUVEC/U87MG co-culture, 100 μM GL equivalent, 24 h (control 217.8 ± 5.9)
Description: (§1) To evaluate the inhibitory effect of Lf-GL on neovascularization in the tumor microenvironment in vitro, U87MG cells were seeded in the Transwell® insert chambers that were 6.5 mm in diameter and had 0.4 μm pore sizes (seeding density: 2.5 × 10^4 cells per well, Corning). HUVECs were seeded in the Transwell basal chamber (seeding density: 5.0 × 10^4 cells per well). GL, Lf, or Lf-GL (100 × 10^–6 M of GL equivalent concentration) were added to the insert chamber, and cells were incubated for 24 h. CCK-8 assay and HMGB1 ELISA were conducted at the basal chamber.

HUVEC = HUVEC co-cultured with U87MG: CCK-8 at basal chamber; assay type: cell-based, human; details: HUVEC/U87MG Transwell co-culture, 100 μM GL equivalent, 24 h
Description: as §1

[1] = GBM targeted-GL by HPLC in brain homogenate; assay type: in vivo, orthotopic GBM model mice
Description: Orthotopic GBM mice model mice were used for quantification of GBM targeting efficacy. The brain tissue was homogenized in deionized water at a 33.3 w/v (%) using a FastPrep-24 5G (MP biomedical, South Korea). The GL were added to pooled brain homogenate to obtain seven-point calibration curves with a range of 10–1000 ng mL^−1. Then, homogenate (50 μL) was mixed with methanol (100 μL). […] Thereafter, supernatants (100 μL) were mixed with mobile phase solution (900 μL), then filtered with a 0.22 μm syringe filter. Samples were collected in a 2 mL HPLC vial (Screw top vial, Waters, USA) and analyzed by HPLC at 254 nm. […] Mice were sacrificed and brain tissues were collected 10 min after the GL and Lf-GL injection. The samples for quantification were also conducted using the same process as GL standard preparation.

B1: Lf-GL: lactoferrin-glycyrrhizin conjugate with ligation ratio Lf:GL 1:10, used in further experiments (conjugate, UniProt P24627 20-708, looked up)
Lactotransferrin: APRKNVRWCTISQPEWFKCRRWQWRMKKLGAPSITCVRRAFALECIRAIAEKKADAVTLDGGMVFEAGRDPYKLRPVAAEIYGTKESPQTHYYAVAVVKKGSNFQLDQLQGRKSCHTGLGRSAGWIIPMGILRPYLSWTESLEPLQGAVAKFFSASCVPCIDRQAYPNLCQLCKGEGENQCACSSREPYFGYSGAFKCLQDGAGDVAFVKETTVFENLPEKADRDQYELLCLNNSRAPVDAFKECHLAQVPSHAVVARSVDGKEDLIWKLLSKAQEKFGKNKSRSFQLFGSPPGQRDLLFKDSALGFLRIPSKVDSALYLGSRYLTTLKNLRETAEEVKARYTRVVWCAVGPEEQKKCQQWSQQSGQNVTCATASTTDDCIVLVLKGEADALNLDGGYIYTAGKCGLVPVLAENRKSSKHSSLDCVLRPTEGYLAVAVVKKANEGLTWNSLKDKKSCHTAVDRTAGWNIPMGLIVNQTGSCAFDEFFSQSCAPGADPKSRLCALCAGDDQGLDKCVPNSKEKYYGYTGAFRCLAEDVGDVAFVKNDTVWENTNGESTADWAKNLNREDFRLLCLDGTRKPVTEAQSCHLAVAPNHAVVSRSDRAAHVKQVLLHQQALFGKNGKNCPDKFCLFKSETKNLLFNDNTECLAKLGGRPTYEEYLGTEYVTAIANLKKCSTSPLLEACAFLTR
modifications: glycyrrhizin conjugate
HMGB1
  HMGB1 level in medium: 176.1 ± 4.9 ng/mL
HUVEC
  Reduction of endothelial cell proliferation: 13.0 ± 0.7%
[1]; brain/GBM accumulation
  Accumulated amount higher than GL without Lf conjugation: twofold
[1]; orthotopic GBM mice, i.v. GL equivalent 50 mg kg^−1, 10 min after injection
  GL concentration detected in brain homogenate: 19.3 ± 1.6 µg/mL
